Results as given in patent EP4707393A1, “DOUBLE-STRANDED SIRNA, CONJUGATE THEREOF AND USE THEREOF” (CMS Research & Development Pte. Ltd., priority 2023, dated 2024).

Key:
[1] = Melting temperature (Tm) by UV absorption at 260 nm; type: physicochemical; settings: phosphate buffer solution; average of at least two independent measurements
Description: The Tm value was determined by recording the change in UV absorption at 260 nm of DNA/RNA in phosphate buffer solution as the temperature increased.
Table 6 Melting temperature (Tm) test instrument parameters
The melting temperature (Tm) was calculated from the first derivative of the smoothed heating curve, and the reported value was the average of at least two independent measurements. Table 7 Melting temperatures (Tm) of conjugates of the present disclosure

LPA mRNA = experiment: In vivo efficacy in LPA-HDI mouse model (liver LPA mRNA); set-up: species or system BALB/c mouse; settings: 3 mg/kg single subcutaneous injection, Day 14, relative to PBS blank group, 4 mice per group
Description: The knockdown effect of the test double-stranded siRNA conjugate on the target gene LPA upon entry into the mouse is evaluated by rapid high-pressure injection of the physiological saline containing recombinant plasmid pcDNA-LPA carrying the target gene via the tail vein.
pcDNA-LPA plasmid, BALB/c mouse, PBS (phosphate buffer), and conjugates of the present invention.
Six-week-old female BALB/c mice were ordered and acclimated/quarantined for three days upon arrival in the animal room.
On Day 0, the mice were randomly grouped based on body weight data. After grouping, all mice were given a single administration via subcutaneous injection, with a dose volume of 10 mL/kg. Mice in Group 1 received PBS; mice in the other groups received the conjugates (dissolved in PBS).
On Day 13 post-administration, all mice were injected with normal saline containing the pcDNA-LPA plasmid via the tail vein within 5 seconds. The injection volume (mL) = mouse body weight (g) × 8%. The amount of plasmid injected per mouse was 10 µg.
On Day 14 post-administration, all groups of mice were euthanized by CO2 inhalation, and 2 liver samples were collected from each mouse. Liver samples were treated overnight with RNAlater at 4 °C, then RNAlater was removed, and stored at -80 °C for detection of LPA gene expression levels.

PHH cells = experiment: Off-target assessment by RNA-sequencing in PHH cells; type: cell-based; settings: vs PBS, 48 hours; for Downregulated differential genes / Total differential genes / Upregulated differential genes: DESeq2 padj ≤ 0.05 |log2FoldChange| ≥ 1.0
Description: • 1.1 Double-stranded siRNA conjugates • 1.2 PHH cells, purchased from Research Institute for Liver Diseases(Shanghai)Co. Ltd. • 1.3 Main reagents: InvitroGRO CP Medium (Cat. No.: BIOIVT-S03316), Fetal Bovine Serum (Cat. No.: ExCellBio-FSP500), Penicillin-Streptomycin (Cat. No.: Hyclone-SV30010), TRLzol Reagent (Cat. No.: Ambion-15596018).
The cryopreserved PHH was taken from the liquid nitrogen and thawed in a water bath at 37 °C. The fully thawed PHH was transferred to a 10% FBS InvitrogRO CP medium and blended well, and counted using a counter. The cell density was adjusted to 6 × 10^5 cells/mL.
siRNAs were diluted with RNase-free PBS to 10 times the final concentration (for example, diluted to 1000 nM if the test concentration is 100 nM). The diluted siRNAs were then added to a collagen-coated 12-well plate at 100 µL/well, with 1 concentration point, 3 replicated wells, and blank PBS as the negative control group. PHH cells at a density of 6 × 10^5 cells/mL were added to the collagen-coated 12-well plate at 900 µL/well. The final concentrations of the test compounds were […]. The cell plates were incubated in a 5% CO2, 37 ° C incubator for 48 hours. After 48 hours, the medium was removed, 600µL of Trizol was added per well to lyse the cells, and sent to Beijing Novogene Co., Ltd. for RNA-sequencing.
NEB Standard Library Preparation: Fragmented mRNAs were used as a template and random oligonucleotides as primers. The first strand of cDNA was synthesized in an M-MuLV reverse transcriptase system. The RNA strand was then degraded with RNaseH, and the second strand of cDNA was synthesized using a DNA polymerase I system with dNTPs as raw materials. The purified double-stranded cDNA underwent end repair, A-tailing, and adapter ligation for sequencing. The cDNA of approximately 250-300 bp was screened out by AMPure XP beads, PCR amplified, and the PCR product was purified again by AMPure XP beads to finally obtain the library. The kit used for library construction was NEBNext® Ultra ™ RNA Library Prep Kit for Illumina.
After the library construction, quantification was primarily performed using a Qubit2.0 Fluorometer, and the library was diluted to 1.5 ng/µL. The insert size of the library was then detected using an Agilent 2100 bioanalyzer. If the insert size meets expectations, the effective concentration of the library was accurately quantified by qRT-PCR (an effective concentration of the library higher than 2nM) to ensure the quality of the library.
After passing quality control of the library, different libraries were pooled according to the effective concentration and target output data volume for Illumina sequencing. The basic principle of sequencing is Sequencing by Synthesis. Four fluorescently labeled dNTPs, DNA polymerase, and adapter primers were added to the sequencing flow cell for amplification. As each sequencing cluster extends the complementary strand, the incorporation of each fluorescently labeled dNTP can release the corresponding fluorescence. The sequencer captures the fluorescence signal and converts the optical signals into sequencing peaks through computer software, thereby obtaining the sequence information of the test fragments.
Experimental results were obtained through software analysis
Differential gene analysis takes DESeq2 padj ≤ 0.05 |log2FoldChange| ≥ 1.0 as the threshold. Table 8. Differential gene statistics

## Z42: siRNA conjugate: sense SEQ ID NO:49, ligand D01 at 3' end of sense strand, antisense SEQ ID NO:80 (sense CAGCCCCTTATTGTTATACGA; antisense NCGTATNACAATAAGGGGCNGTT; ligand D01 at sense 3' end; listed as RNA; modified_base 1: mod_base = OTHER; note = 2'-O-methylcytidine; modified_base 2: mod_base = OTHER; note = 2'-O-methyladenosine; modified_base 3: mod_base = OTHER; note = 2'-O-methylguanosine; modified_base 4..7: mod_base = OTHER; note = 2'-O-me; note = n is B33; note = 2'-deoxycytidine; modified_base 4: mod_base = OTHER; note = 2'-O-methyluridine; m)
[1]
  Melting temperature Tm: 67.75 °C
LPA mRNA
  % Downregulation of LPA mRNA: 78.0%
PHH cells
  Maximum up-regulation folds: 1.9
  Downregulated differential genes: 0
  Total differential genes: 4
  Upregulated differential genes: 4

## Z46: siRNA conjugate: sense SEQ ID NO:43, ligand D01 at 3' end of sense strand, antisense SEQ ID NO:66 (sense CAGCCCCTTATTGTTANACGA; antisense TCTCGTATNACAATAAGGGGCTG; ligand D01 at sense 3' end; listed as RNA; modified_base 1: mod_base = OTHER; note = 2'-O-methylcytidine; modified_base 2: mod_base = OTHER; note = 2'-O-methyladenosine; modified_base 3: mod_base = OTHER; note = 2'-O-methylguanosine; modified_base 4..7: mod_base = OTHER; note = 2'-O-me; note = 2'-O-methyluridine; modified_base 4: mod_base = OTHER; note = 2'-fluorocytidine; modified_base 5: mod_base = OTHER; note = 2'-O-methylg)
[1]
  Melting temperature Tm: 76.75 °C
LPA mRNA
  % Downregulation of LPA mRNA: 89.0%
PHH cells
  Downregulated differential genes: 0
  Total differential genes: 0
  Upregulated differential genes: 0
